Data set [1] addresses T1, GST HIF-1α 530-652, Q16665.
T1 chain: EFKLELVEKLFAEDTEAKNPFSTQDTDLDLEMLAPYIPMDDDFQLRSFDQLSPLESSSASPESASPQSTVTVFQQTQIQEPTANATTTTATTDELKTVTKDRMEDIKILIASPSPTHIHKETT

Data set [2] deals with GST HIF-1α 577-826, Q16665.
For another data set, the target named is T2, GST HIF-1α 775-826 N803A.
T2 chain: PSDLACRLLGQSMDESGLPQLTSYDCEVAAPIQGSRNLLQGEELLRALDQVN

Data set [3] concerns the target GST HIF-1α 775-826 N803D, Q16665.
Data set [4] deals with GST HIF-1α 775-826 N803E, Q16665.
Data set [5] has as its target GST HIF-1α 775-826 N803Q, Q16665.
In data set [6] the target is GST HIF-1α 775-826 [GST: P08515].
A further data set has as its target T3, HIF-1α 775-826, Q16665.
T3 chain: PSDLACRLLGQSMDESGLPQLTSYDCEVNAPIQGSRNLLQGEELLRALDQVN

Data set [7] has as its target T4, His6-HIF-1α 344-503, Q16665.
T4 chain: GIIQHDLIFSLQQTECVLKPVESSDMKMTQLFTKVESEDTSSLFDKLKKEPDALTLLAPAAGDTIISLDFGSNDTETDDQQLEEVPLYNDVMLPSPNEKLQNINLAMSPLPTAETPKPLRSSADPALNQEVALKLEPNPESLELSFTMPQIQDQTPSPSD

For data set [8], the target named is T5, His6-HIF-1α 530-698, Q16665.
T5 chain: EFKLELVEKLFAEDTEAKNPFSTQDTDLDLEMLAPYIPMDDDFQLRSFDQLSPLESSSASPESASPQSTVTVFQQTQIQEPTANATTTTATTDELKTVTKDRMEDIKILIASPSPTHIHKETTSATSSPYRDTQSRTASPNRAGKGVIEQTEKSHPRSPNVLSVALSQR

One protein from patent US20050244915 can be followed below.

B1: Factor Inhibiting HIF (FIH), recombinant (protein)
chain: MAATAAEAVASGSGEPREEAGALGPAWDESQLRSYSFPTRPIPRLSQSDPRAEELIENEEPVVLTDTNLVYPALKWDLEYLQENIGNGDFSVYSASTHKFLYYDEKKMANFQNFKPRSNREEMKFHEFVEKLQDIQQRGGEERLYLQQTLNDTVGRKIVMDFLGFNWNWINKQQGKRGWGQLTSNLLLIGMEGNVTPAHYDEQQNFFAQIKGYKRCILFPPDQFECLYPYPVHHPCDRQSQVDFDNPDYERFPNFQNVVGYETVVGPGDVLYIPMYWWHHIESLLNGGITITVNFWYKGAPTPKRIEYPLKAHQKVAIMRNIEKMLGEALGNPQEVGPLLNTMIKGRYN
Take B1: the % activity relative to 775-826 peptide in [1] was 1.8%; in data set [2] it was 67%; with GST HIF-1α 775-826 N803A, less than 0.01%; in data set [3] it was 7%; in [4], less than 0.01%; in [5], less than 0.01%. In addition, the % activity relative to 775-826 peptide in data set [6] is 96%; in the data set with HIF-1α 775-826, Q16665, 100%; in data set [7], less than 0.01%; in data set [8], less than 0.01%. The CO2 released in data set [1] was 0.05 nmol; in [2], 0.81 nmol; with GST HIF-1α 775-826 N803A, less than 0.001 nmol; in [3], 0.22 nmol; in [4], less than 0.001 nmol; in data set [5] it was less than 0.001 nmol. In addition, the CO2 released in data set [6] was 2.7 nmol; with HIF-1α 775-826, Q16665, 2.8 nmol; in [7] it was less than 0.001 nmol; in [8] it was less than 0.001 nmol. Further, the “Km(peptide), 2-OG turnover assay” value in the data set with HIF-1α 775-826, Q16665 was “Km(peptide)=10 µM”. Moreover, the “Vmax, 2-OG turnover assay” value in the data set with HIF-1α 775-826, Q16665 is “Vmax=0.3 µmol/min/mg”. Also, the “mass increase of the substrate after reaction (mass spectrometry)” value with HIF-1α 775-826, Q16665 is on record as “an increase in mass of 16Da was observed after HPLC isolation of product”.
